Consider one molecule from paper PMC11066147 (Heliyon, 2024).

“Also recorded” adds a separate entry of the source.

One assay addresses T1, PfHsp70-z (Plasmodium falciparum, UniProt Q8IC01).
T1 sequence (Q8IC01 1-873): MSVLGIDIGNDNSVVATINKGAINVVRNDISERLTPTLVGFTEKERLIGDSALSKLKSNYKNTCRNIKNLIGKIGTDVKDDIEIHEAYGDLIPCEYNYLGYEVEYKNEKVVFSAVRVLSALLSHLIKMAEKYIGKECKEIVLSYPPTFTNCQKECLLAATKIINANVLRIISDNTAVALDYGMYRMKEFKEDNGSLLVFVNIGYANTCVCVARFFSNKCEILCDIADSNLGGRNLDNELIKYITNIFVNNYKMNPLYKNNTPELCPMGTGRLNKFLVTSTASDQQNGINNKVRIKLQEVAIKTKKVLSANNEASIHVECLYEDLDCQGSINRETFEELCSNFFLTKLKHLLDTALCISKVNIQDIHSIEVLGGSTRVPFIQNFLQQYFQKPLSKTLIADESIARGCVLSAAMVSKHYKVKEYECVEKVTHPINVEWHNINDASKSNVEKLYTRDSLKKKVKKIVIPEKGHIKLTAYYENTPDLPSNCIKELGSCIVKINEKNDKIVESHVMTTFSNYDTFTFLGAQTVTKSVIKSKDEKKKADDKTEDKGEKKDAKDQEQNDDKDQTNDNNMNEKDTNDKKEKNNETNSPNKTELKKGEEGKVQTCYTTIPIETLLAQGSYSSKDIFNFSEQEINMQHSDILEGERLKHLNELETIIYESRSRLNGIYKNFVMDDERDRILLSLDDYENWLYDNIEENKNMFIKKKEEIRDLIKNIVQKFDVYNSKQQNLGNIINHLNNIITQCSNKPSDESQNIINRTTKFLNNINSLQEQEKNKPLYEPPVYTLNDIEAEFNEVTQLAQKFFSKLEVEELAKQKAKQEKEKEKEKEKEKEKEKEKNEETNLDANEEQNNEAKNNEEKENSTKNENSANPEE
Put plainly: SPR self-association, immobilised ligand PfHsp70-z. It counts as binding.

In assay [1] the target is T2, PfHsp70-1 (Plasmodium falciparum, UniProt Q8IB24). Nature of the assay: SPR heterologous association with PfHsp70-1. It counts as binding.
T2 sequence (Q8IB24 1-677): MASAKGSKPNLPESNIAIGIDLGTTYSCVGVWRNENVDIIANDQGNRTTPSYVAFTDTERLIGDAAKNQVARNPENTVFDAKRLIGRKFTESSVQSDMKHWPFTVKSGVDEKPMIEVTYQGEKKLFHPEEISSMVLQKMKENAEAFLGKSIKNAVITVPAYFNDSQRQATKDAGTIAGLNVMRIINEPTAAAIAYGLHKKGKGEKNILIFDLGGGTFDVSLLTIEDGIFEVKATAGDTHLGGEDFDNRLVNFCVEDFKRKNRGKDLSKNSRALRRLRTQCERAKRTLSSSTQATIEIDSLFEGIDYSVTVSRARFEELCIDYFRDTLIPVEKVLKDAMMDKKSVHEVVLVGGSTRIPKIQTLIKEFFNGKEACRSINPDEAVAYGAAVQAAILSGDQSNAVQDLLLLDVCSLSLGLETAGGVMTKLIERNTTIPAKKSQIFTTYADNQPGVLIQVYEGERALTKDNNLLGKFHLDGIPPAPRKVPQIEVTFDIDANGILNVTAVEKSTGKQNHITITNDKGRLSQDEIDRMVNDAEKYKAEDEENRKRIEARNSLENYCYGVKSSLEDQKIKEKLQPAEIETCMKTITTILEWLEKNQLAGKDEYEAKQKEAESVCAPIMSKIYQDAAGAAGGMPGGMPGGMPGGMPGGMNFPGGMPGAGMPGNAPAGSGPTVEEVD
For assay [2], the target named is T2, PfHsp70-1. As to conditions: previous study; ref [3]; cited from earlier work.

B1: PfHsp70-z: essential cytosol localised Hsp110 chaperone of Plasmodium falciparum, recombinant (protein)
chain: MSVLGIDIGNDNSVVATINKGAINVVRNDISERLTPTLVGFTEKERLIGDSALSKLKSNYKNTCRNIKNLIGKIGTDVKDDIEIHEAYGDLIPCEYNYLGYEVEYKNEKVVFSAVRVLSALLSHLIKMAEKYIGKECKEIVLSYPPTFTNCQKECLLAATKIINANVLRIISDNTAVALDYGMYRMKEFKEDNGSLLVFVNIGYANTCVCVARFFSNKCEILCDIADSNLGGRNLDNELIKYITNIFVNNYKMNPLYKNNTPELCPMGTGRLNKFLVTSTASDQQNGINNKVRIKLQEVAIKTKKVLSANNEASIHVECLYEDLDCQGSINRETFEELCSNFFLTKLKHLLDTALCISKVNIQDIHSIEVLGGSTRVPFIQNFLQQYFQKPLSKTLIADESIARGCVLSAAMVSKHYKVKEYECVEKVTHPINVEWHNINDASKSNVEKLYTRDSLKKKVKKIVIPEKGHIKLTAYYENTPDLPSNCIKELGSCIVKINEKNDKIVESHVMTTFSNYDTFTFLGAQTVTKSVIKSKDEKKKADDKTEDKGEKKDAKDQEQNDDKDQTNDNNMNEKDTNDKKEKNNETNSPNKTELKKGEEGKVQTCYTTIPIETLLAQGSYSSKDIFNFSEQEINMQHSDILEGERLKHLNELETIIYESRSRLNGIYKNFVMDDERDRILLSLDDYENWLYDNIEENKNMFIKKKEEIRDLIKNIVQKFDVYNSKQQNLGNIINHLNNIITQCSNKPSDESQNIINRTTKFLNNINSLQEQEKNKPLYEPPVYTLNDIEAEFNEVTQLAQKFFSKLEVEELAKQKAKQEKEKEKEKEKEKEKEKEKNEETNLDANEEQNNEAKNNEEKENSTKNENSANPEE
For B1, the “nucleotide regulation of self-association” value with PfHsp70-z (NN vs ADP/ATP) is recorded as “its self-association was nucleotide independent; also recorded: its oligomerisation was not regulated by nucleotide”. Besides, the “KD self-association” value with PfHsp70-z (apo state) was found to be 1.39 nM. Moreover, the “affinity in apo- vs ADP-state” value in the assay with PfHsp70-1 [1] (apo- and ADP-states) is “occurred within the same order of affinity”. In addition, the “effect of nucleotide on heterologous association” value in the assay with PfHsp70-1 [1] (relative to apo-state) is listed as “ATP enhanced the direct association of the two chaperones”. Moreover, the “effect of ATP on association” value with PfHsp70-1 [2] was “ATP substantially enhances their association”.
